Experimental data: publication PMC6366758 (2019)

Assays:
[1] = biological target: T1, Post-fusion F (human respiratory syncytial virus A2 …); assay: SPR
[2] = biological target: T1, Post-fusion F; assay: SPR; remark: listed apart in the source

Row | Binder | koff [1] [s⁻¹] | Kd [2] [pM]
1 | R4.C6 monoclonal antibody (antibody, V domains shown) VH: EVQLQQSGPELVKPGASVKISCKASGYAFSNSWMSWVKQRPGKGLEWIGRLFPADGDITYNGHFKDKAALTADKSSNTAYIQLSSLTSEDSAVYFCARMDNSEVFWGQGTLVTVSA VL: DILLTQSQKFMSTSVGDRVSITCKASQNVRTGVSWYQRKPGQSPKALIYLASNRHTGVPDRFTGRGSGTDFTLTISEVQSEDLADYFCLQHWTVPYTFGGGTKLEIK | 3.74e-05 | 
2 | Motavizumab (antibody, V domains shown) VH: QVTLRESGPALVKPTQTLTLTCTFSGFSLSTAGMSVGWIRQPPGKALEWLADIWWDDKKHYNPSLKDRLTISKDTSKNQVVLKVTNMDPADTATYYCARDMIFNFYFDVWGQGTTVTVSS VL: DIQMTQSPSTLSASVGDRVTITCSASSRVGYMHWYQQKPGKAPKLLIYDTSKLASGVPSRFSGSGSGTEFTLTISSLQPDDFATYYCFQGSGYPFTFGGGTKVEIK | 1.44e-05 | 40
